This note sets out measurements from IntAct's records for PubMed 12606577.

One experiment addresses pak1_human PAK1 (UniProt Q13153).
The target in the next experiment is par6b_mouse Pard6b (UniProt Q9JK83).
par6b_mouse Pard6b, sequence (Q9JK83 whole entry): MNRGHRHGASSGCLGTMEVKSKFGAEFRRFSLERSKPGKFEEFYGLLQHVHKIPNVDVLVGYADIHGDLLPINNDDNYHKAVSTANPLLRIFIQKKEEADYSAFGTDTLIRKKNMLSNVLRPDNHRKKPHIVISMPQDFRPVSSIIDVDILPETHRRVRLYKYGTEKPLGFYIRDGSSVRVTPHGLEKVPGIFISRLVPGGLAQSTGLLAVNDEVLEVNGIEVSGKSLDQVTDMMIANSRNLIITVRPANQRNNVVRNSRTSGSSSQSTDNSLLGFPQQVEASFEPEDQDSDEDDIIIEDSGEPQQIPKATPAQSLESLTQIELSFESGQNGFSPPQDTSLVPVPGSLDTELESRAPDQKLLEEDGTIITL

pak1_human PAK1, sequence (Q13153 whole entry): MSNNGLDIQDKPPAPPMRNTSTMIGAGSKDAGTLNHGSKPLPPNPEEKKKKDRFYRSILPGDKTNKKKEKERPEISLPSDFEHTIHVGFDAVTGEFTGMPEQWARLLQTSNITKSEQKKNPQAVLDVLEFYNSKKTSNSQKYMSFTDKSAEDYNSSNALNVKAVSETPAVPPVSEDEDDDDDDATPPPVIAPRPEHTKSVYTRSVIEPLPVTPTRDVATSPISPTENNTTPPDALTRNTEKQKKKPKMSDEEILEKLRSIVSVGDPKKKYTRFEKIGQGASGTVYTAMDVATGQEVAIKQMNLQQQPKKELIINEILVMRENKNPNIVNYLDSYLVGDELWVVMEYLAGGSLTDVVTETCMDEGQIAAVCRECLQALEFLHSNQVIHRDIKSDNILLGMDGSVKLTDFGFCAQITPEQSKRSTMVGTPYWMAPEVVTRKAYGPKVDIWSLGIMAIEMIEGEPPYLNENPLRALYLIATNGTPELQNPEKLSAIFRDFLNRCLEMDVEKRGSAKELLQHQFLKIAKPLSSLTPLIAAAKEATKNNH
Cell division control protein 42 homolog (Homo sapiens), P60953 D38A, sequence (P60953 whole entry D38A): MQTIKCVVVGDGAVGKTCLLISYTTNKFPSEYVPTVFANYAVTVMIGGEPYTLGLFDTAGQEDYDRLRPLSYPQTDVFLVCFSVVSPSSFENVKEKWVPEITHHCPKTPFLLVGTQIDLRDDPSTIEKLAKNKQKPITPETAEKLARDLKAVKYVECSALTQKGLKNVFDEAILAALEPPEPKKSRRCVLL
Cell division control protein 42 homolog (Homo sapiens), P60953 Y40K, sequence (P60953 whole entry Y40K): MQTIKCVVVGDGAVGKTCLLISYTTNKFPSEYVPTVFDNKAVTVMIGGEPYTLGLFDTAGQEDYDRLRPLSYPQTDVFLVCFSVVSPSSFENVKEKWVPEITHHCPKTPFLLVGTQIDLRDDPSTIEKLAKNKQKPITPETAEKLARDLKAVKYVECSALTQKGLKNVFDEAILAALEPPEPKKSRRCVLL
Cell division control protein 42 homolog (Homo sapiens), P60953 F37A, sequence (P60953 whole entry F37A): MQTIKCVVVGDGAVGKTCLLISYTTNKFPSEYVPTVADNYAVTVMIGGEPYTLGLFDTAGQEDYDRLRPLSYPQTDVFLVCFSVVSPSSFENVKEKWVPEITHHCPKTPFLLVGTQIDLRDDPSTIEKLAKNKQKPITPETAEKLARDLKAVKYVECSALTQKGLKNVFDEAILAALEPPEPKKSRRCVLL

For “Cell division control protein 42 homolog (Homo sapiens), P60953 D38A”, the “effect of a mutation on the interaction” value with pak1_human PAK1 and with par6b_mouse Pard6b was “decreasing interaction” in each case.

On to “Cell division control protein 42 homolog (Homo sapiens), P60953 F37A”, for which, in the experiment with par6b_mouse Pard6b, the “effect of a mutation on the interaction” value is recorded as “decreasing interaction”.

Take “Cell division control protein 42 homolog (Homo sapiens), P60953 Y40K”: the “effect of a mutation on the interaction” value in the experiment with pak1_human PAK1 and in the experiment with par6b_mouse Pard6b was “decreasing interaction” in each case.
